According to paper PMC7337384 (bioRxiv, 2020):

Target: T1, MERS-CoV receptor-binding domain fused to the Fc domain of human IgG1 (MERS-CoV, UniProt K9N5Q8 381-587)
T1 sequence: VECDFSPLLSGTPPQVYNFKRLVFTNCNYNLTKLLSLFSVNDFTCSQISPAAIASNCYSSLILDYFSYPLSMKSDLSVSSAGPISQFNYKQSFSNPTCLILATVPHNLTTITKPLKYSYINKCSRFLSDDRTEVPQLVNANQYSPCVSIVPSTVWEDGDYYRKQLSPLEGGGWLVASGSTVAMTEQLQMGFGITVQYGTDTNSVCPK
Test: SPR

B1: soluble monomeric human ACE2-NN (enzymatically inactive human ACE2 lacking its active-site histidines) (domain or fragment)
chain: QSTIEEQAKTFLDKFNHEAEDLFYQSSLASWNYNTNITEENVQNMNNAGDKWSAFLKEQSTLAQMYPLQEIQNLTVKLQLQALQQNGSSVLSEDKSKRLNTILNTMSTIYSTGKVCNPDNPQECLLLEPGLNEIMANSLDYNERLWAWESWRSEVGKQLRPLYEEYVVLKNEMARANHYEDYGDYWRGDYEVNGVDGYDYSRGQLIEDVEHTFEEIKPLYEHLHAYVRAKLMNAYPSYISPIGCLPAHLLGDMWGRFWTNLYSLTVPFGQKPNIDVTDAMVDQAWDAQRIFKEAEKFFVSVGLPNMTQGFWENSMLTDPGNVQKAVCHPTAWDLGKGDFRILMCTKVTMDDFLTAHNEMGNIQYDMAYAAQPFLLRNGANEGFHEAVGEIMSLSAATPKHLKSIGLLSPDFQEDNETEINFLLKQALTIVGTLPFTYMLEKWRWMVFKGEIPKDQWMKKWWEMKREIVGVVEPVPHDETYCDPASLFHVSNDYSFIRYYTRTLYQFQFQEALCQAAKHEGPLHKCDISNSTEAGQKLFNMLRLGKSEPWTLALENVVGAKNMNVRPLLNYFEPLFTWLKDQNKNSFVGWSTDWSPYEPEA
Kd: > 35 µM
